From patent publication US20120316071A1 (published 2012)

Columns and labels:
[1] = target: T1, rHuman IGF-1 sR, (IGF-1 sR), CF (R&D Systems Cat#391-GR) (human, UniProt P08069 31-932); assay: Multispot ECL (MSD), antigen spotted on plate, Fab 580 nM; blank spot 679
T1 construct: Bought recombinant soluble receptor; also called insulin-like growth factor-1 soluble receptor

[2] = target: T2, rHuman ErbB2/Fc Chimera, CF (R&D Systems Cat#1129-ER) (human, UniProt P04626 23-652); assay: as above
T2 construct: Bought recombinant protein; also called human epidermal growth factor 2 receptor; Fc part of the bought chimera not given

[3] = target: T3, Recombinant Human DLL4 (R&D Systems Cat#1506-D4/CF) (human, UniProt Q9NR61 27-524); assay: as above
T3 construct: Bought recombinant protein; also called rHuman DLL4; delta-like protein 4

[4] = target: T4, rHuman EGF R/Fc Chimera, CF (R&D Systems Cat#344-ER) (human, UniProt P00533 25-645); assay: as above
T4 construct: Bought recombinant protein; also called epidermal growth factor receptor; Fc part of the bought chimera not given

[5] = target: T5, rHuman HGF R/c-MET/Fc Chimera, CF (R&D Systems Cat#358-MT/CF) (human, UniProt P08581 25-932); assay: as above
T5 construct: Bought recombinant protein; also called HGF R/Fc; hepatocyte growth factor receptor; Fc part of the bought chimera not given
T5 sequence (P08581 25-932, change not shown): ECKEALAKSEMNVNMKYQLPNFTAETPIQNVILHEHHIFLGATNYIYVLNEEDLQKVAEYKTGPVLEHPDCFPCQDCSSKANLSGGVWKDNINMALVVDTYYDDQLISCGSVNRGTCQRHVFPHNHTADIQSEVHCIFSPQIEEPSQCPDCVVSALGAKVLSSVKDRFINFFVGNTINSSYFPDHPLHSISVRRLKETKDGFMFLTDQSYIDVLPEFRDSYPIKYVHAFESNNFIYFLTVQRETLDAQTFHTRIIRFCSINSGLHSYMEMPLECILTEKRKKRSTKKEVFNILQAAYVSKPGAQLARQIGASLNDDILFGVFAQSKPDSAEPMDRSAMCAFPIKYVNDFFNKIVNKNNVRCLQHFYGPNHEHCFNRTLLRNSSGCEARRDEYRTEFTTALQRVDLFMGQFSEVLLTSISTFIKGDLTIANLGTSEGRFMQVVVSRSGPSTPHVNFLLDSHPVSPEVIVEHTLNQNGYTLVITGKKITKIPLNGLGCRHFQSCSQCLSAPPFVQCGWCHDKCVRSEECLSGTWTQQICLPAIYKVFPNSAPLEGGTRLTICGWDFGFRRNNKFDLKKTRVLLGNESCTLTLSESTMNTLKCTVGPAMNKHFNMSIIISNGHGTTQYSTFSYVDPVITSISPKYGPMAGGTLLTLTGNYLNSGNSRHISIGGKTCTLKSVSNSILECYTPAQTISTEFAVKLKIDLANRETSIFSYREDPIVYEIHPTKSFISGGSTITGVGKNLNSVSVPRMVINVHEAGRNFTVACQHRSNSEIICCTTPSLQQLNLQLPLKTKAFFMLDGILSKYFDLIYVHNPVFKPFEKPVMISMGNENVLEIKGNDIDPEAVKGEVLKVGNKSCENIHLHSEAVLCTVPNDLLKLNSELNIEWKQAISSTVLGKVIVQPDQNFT

[6] = target: T1, rHuman IGF-1 sR, (IGF-1 sR), CF (R&D …); assay: Multispot ECL (MSD), antigen spotted on plate, Fab 9.1 nM; blank spot 276
[7] = target: T2, rHuman ErbB2/Fc Chimera, CF (R&D …); assay: as above
[8] = target: T3, Recombinant Human DLL4 (R&D Systems …); assay: as above
[9] = target: T4, rHuman EGF R/Fc Chimera, CF (R&D …); assay: as above
[10] = target: T5, rHuman HGF R/c-MET/Fc Chimera, CF (R&D …); assay: as above
[11] = target: T1, rHuman IGF-1 sR, (IGF-1 sR), CF (R&D …); assay: Multispot ECL (MSD), antigen spotted on plate, Fab 145 nM; blank spot 357
[12] = target: T3, Recombinant Human DLL4 (R&D Systems …); assay: as above
[13] = target: T4, rHuman EGF R/Fc Chimera, CF (R&D …); assay: as above
[14] = target: T5, rHuman HGF R/c-MET/Fc Chimera, CF (R&D …); assay: as above
[15] = target: T1, rHuman IGF-1 sR, (IGF-1 sR), CF (R&D …); assay: Multispot ECL (MSD), antigen spotted on plate, Fab 36.3 nM; blank spot 314
[16] = target: T2, rHuman ErbB2/Fc Chimera, CF (R&D …); assay: as above
[17] = target: T3, Recombinant Human DLL4 (R&D Systems …); assay: as above
[18] = target: T4, rHuman EGF R/Fc Chimera, CF (R&D …); assay: as above
[19] = target: T5, rHuman HGF R/c-MET/Fc Chimera, CF (R&D …); assay: as above
[20] = target: T6, Recombinant Human DLL4 (R&D Systems Cat#1506-D4/CF) (human, UniProt Q9NR61 27-524); assay: Multispot ECL titration
T6 construct: bought recombinant protein; also called rHuman DLL4; delta-like protein 4

[21] = target: T7, rHuman IGF-1 sR, CF (R&D Systems Cat#391-GR) (human, UniProt P08069 31-932); assay: Multispot ECL
T7 construct: bought soluble receptor; also called insulin-like growth factor-1 soluble receptor

[22] = target: T6, Recombinant Human DLL4 (R&D Systems …); assay: control in the Notch reporter assay; binding assay not described

B1: Fab VH4-34_IGHD7-27*01_IGHJ4*01 & V1-4_IGLJ4*01 (Fab, V domains shown)
VH: QVQLQQWGAGLLKPSETLSLTCAVYGGSFSGYYWSWIRQPPGKGLEWIGEINHSGSTNYNPSLKSRVTISVDTSKNQFSLKLSSVTAADTAVYYCARANWGDYFDYWGQGTLVTVSS
VL: QSALTQPASVSGSPGQSITISCTGTSSDVGGYNYVSWYQQHPGKAPKLMIYEVSNRPSGVSNRFSGSKSGNTASLTISGLQAEDEADYYCSSYTSSSTLFVFGGGTQLIIL
notes: Tested as a Fab made in E. coli; The heavy chain variable region was cloned into Plasmid A (CH1 constant region, His6 and Flag tags); The lambda light chain variable region was cloned into Plasmid E (lambda CL); Only the variable domains are tied to this Fab by name
ECL signal at 580 nM Fab [1]: 1360
ECL signal at 580 nM Fab [2]: 1710
ECL signal at 580 nM Fab [3]: 4420
ECL signal at 580 nM Fab [4]: 1630
ECL signal at 580 nM Fab [5]: 2340
ECL signal at 9.1 nM Fab [6]: 788
ECL signal at 9.1 nM Fab [7]: 987
ECL signal at 9.1 nM Fab [8]: 1030
ECL signal at 9.1 nM Fab [9]: 800
ECL signal at 9.1 nM Fab [10]: 894
ECL signal at 145 nM Fab [11]: 794
ECL signal at 145 nM Fab [12]: 2140
ECL signal at 145 nM Fab [13]: 856
ECL signal at 145 nM Fab [14]: 1170
ECL signal at 36.3 nM Fab [15]: 799
ECL signal at 36.3 nM Fab [16]: 1030
ECL signal at 36.3 nM Fab [17]: 1400
ECL signal at 36.3 nM Fab [18]: 831
ECL signal at 36.3 nM Fab [19]: 1060

B2: Fab VH1-46_IGHD6-6*01_IGHJ1*01 S102A/S103P/S104F & L6_IGKJ1*01 (Fab, V domains shown)
VH: QVQLVQSGAEVKKPGASVKVSCKASGYTFTSYYMHWVRQAPGQGLEWMGIINPSGGSTSYAQKFQGRVTMTRDTSTSTVYMELSSLRSEDTAVYYCAREEYAPFSAEYFQHWGQGTLVTVSS
VL: not shown
notes: Fab; also called H:APF & L:wt; APF triple mutant
fold binding affinity against the parent antibody [20]: 10 fold
binding result [21]: no binding

B3: control Fab VH6-1_IGHD6-13*01_IGHJ4*01 and V2-17_IGLJ2*01 (Fab, V domains shown)
VH: QVQLQQSGPGLVKPSQTLSLTCAISGDSVSSNSAAWNWIRQSPSRGLEWLGRTYYRSKWYNDYAVSVKSRITINPDTSKNQFSLQLNSVTPEDTAVYYCAREGYSSSWYDYFDYWGQGTLVTVSS
VL: SYELTQPPSVSVSPGQTARITCSGDALPKQYAYWYQQKPGQAPVLVIYKDSERPSGIPERFSGSSSGTTVTLTISGVQAEDEADYYCQSADSSGTYPVVFGGGTKLTVL
binding result [22]: no binding
